Experimental data published in patent US20150010525A1, “Catalytic Tagging System to Study Macro-Molecular Interactions Using Engineered Ubiquitin Ligase and Ubiquitin-Like Proteins to Facilitate Substrate Identification” (THE REGENTS OF THE UNIVERSITY OF CALIFORNIA, priority 2012, published 2015).

Tested on: HeLa cells
Test: Cell viability by CellTiter-Glo after STS treatment
Assay type: cell-based
Details: 24 hours after transfection, STS 2 hours
Experimental: FIG. 13 illustrates functional studies of PGAM5 in cells. (A) PGAM5(Δ24) binds XIAP and cIAP1 in vivo. On the left, HEK293 cells were cotransfected with Flag-cIAP1 and PGAM5(FL)-Myc or PGAM5(Δ24)-Myc. Total cell lysates were analyzed by immune-blotting with anti-Flag and anti-Myc antibodies (bottom two panels). Anti-Myc immune-precipitates (IP) were subjected to immunoblot analysis using anti-Myc and anti-Flag antibodies (top two panels). On the right, PGAM5(Δ24)-Myc was transiently expressed in HEK293 cells. 36 hours after transfection, cells were lysed and subjected for Immuno-precipitation with either anti-Myc antibody or an isotype control antibody (mouse IgG). Proteins in the whole cell lysate (bottom three panels) and proteins that bind to the antibody conjugated sepharose beads (top three panels) were assayed with immunoblotting. […] 24 hours after transfection, cell viability was measured by Annexin V staining. […] Error bars represent SEM calculated from triplicate experiments. […] Cell viability is then immediately measured by CellTiter-Glo luminescent assay. […] PGAM5 levels are analyzed with anti-Myc immune-blotting before STS treatment. Error bars represent SEM calculated from triplicate samples.
HeLa cells were plated in 96 well plates and transfected with either empty vector or the PGAM5 construct. […] Luminescent signals were read using a SpectraMax (Molecular Devices) plate reader.

B1: Serine/threonine-protein phosphatase PGAM5, mitochondrial: phosphoglycerate mutase family member 5, dimeric protein phosphatase (protein, UniProt Q96HS1 1-289, looked up)
chain: MAFRQALQLAACGLAGGSAAVLFSAVAVGKPRAGGDAEPRPAEPPAWAGGARPGPGVWDPNWDRREPLSLINVRKRNVESGEEELASKLDHYKAKATRHIFLIRHSQYHVDGSLEKDRTLTPLGREQAELTGLRLASLGLKFNKIVHSSMTRAIETTDIISRHLPGVCKVSTDLLREGAPIEPDPPVSHWKPEAVQYYEDGARIEAAFRNYIHRADARQEEDSYEIFICHANVIRYIVCRALQFPPEGWLRLSLNNGSITHLVIRPNGRVALRTLGDTGFMPPDKITRS
modifications: full-length
notes: phosphoglycerate mutase family member 5, dimeric protein phosphatase
- sensitization to apoptosis inducer STS: sensitized cells to the apoptosis inducer STS
